Test results reported in PMC11941939, “Tackling Prostate Cancer with Theranostic E5B9-Bombesin Target Modules (TMs): From Imaging to Treatment with UniCAR T-Cells” (International Journal of Molecular Sciences, 2025).

How the values were obtained:
[1] = Dynamic PET imaging, tumor uptake in PC3 xenografts; format: in vivo, mouse; conditions: male, BALB/c Nude, mouse, PC3 xenograft tumor, iv, total radioactivity; PC3 tumor-bearing mice, PET, 60 min p.i., i.v., mean ± SEM, n = 4-6; read-out: SUVmean,60min tumor uptake
Protocol: (§1) For PET experiments and as prostate cancer xenograft models, male PC3 and LNCaP tumor-bearing BALB/c Nude mice were used (body weight: 22−24 g, Charles River Laboratories, Saint-Constant, QC, Canada). To generate the tumor xenografts, about 5−6 × 10^6 PC3 cells in 100 μL of PBS or 20−25 × 10^6 LNCaP cells in 200 μL of PBS/Matrigel (50/50) were subcutaneously injected into the left shoulder of male BALB/c Nude mice. For the androgen-dependent LNCaP model, a 1.5 mg pellet containing dehydroepiandrosterone DHEA (60-day release; Innovative Research of America, Sarasota, FL, U.S.A.) was implanted subcutaneously into the upper right flank shortly before LNCaP cell injection. PC3 tumors and LNCaP tumors reached sizes of ∼300−500 mm^3 after 3−5 weeks and 6−8 weeks, respectively, and were used for the in vivo experiments. PET imaging of E5B9-^68Ga-NOTA-BBN2 monomeric and dimeric TMs was performed on an INVEON® PET/CT scanner (Siemens Preclinical Solutions, Knoxville, TN, USA). Prior to radiotracer injection, mice were anesthetized through inhalation of isoflurane in 40% oxygen/60% nitrogen (gas flow 1 L/min), and body temperature was kept constant at 37 °C. The mice were placed in a prone position in the center of the field of view. A transmission scan for attenuation correction was not acquired. Mice were injected with 4−8 MBq of E5B9-^68Ga-NOTA-BBN2 or E5B9-^68Ga-NOTA-(BBN2)2 in 150 μL 10% EtOH/saline solution through a tail vein catheter. For blocking studies, PC3- and LNCaP-tumor-bearing […] mice were pre-dosed i.v. with 300 μg of Ava-BBN2 (15 min prior to radiotracer injection) in 50 uL saline. Data acquisition was performed over 60 min in 3D list mode. The dynamic list mode data were sorted into sinograms with 54 time frames (10 × 2, 8 × 5, 6 × 10, 6 × 20, 8 × 60, 10 × 120, 6 × 300 s). The frames were reconstructed using maximum a posteriori (MAP) as the reconstruction mode. No correction for partial volume effects was applied. The image files were processed using the ROVER v2.0.51 software (ABX GmbH, Radeberg, Germany). […] ROIs covered all visible tumor mass of the subcutaneous tumors, and the thresholds were defined by 50% of the maximum radioactivity uptake level. Mean standardized uptake values [SUVmean = (activity/mL tissue)/(injected activity/body weight), […]] were calculated for each ROI, and time−activity curves (TACs) were generated. For each experimental group (different radiotracers and mouse tumor models as well as control and blocking experiments), n = 3–6 mice were measured. […] Blocking experiments were conducted in the same mice: first, a control scan was measured and then repeated 1–2 days after in the presence of a blocking concentration of 300 μg of Ava-BBN2. All semi-quantified PET data are presented as means ± SEM. […]

[2] = In vivo metabolic stability in venous blood plasma; set-up: species or system mouse; conditions: BALB/c mice, i.v., 60 min p.i., radio-HPLC, mean ± SEM, n = 3, listed as dimeric TM
Protocol: For metabolic stability studies in vivo, normal male BALB/c mice (body weight: 23−26 g, Charles River Laboratories, Saint-Constant, QC, Canada) were anesthetized through inhalation of isoflurane in 40% oxygen/60% nitrogen (gas flow 1 L/min) prior to i.v. radiotracer injection via the tail vein. Mice were injected with 28-50 MBq of E5B9-^68Ga-NOTA-BBN2 TM, E5B9-^68Ga-NOTA-(BBN2)2 TM, or ^68Ga-NOTA-Ava-Glu-(BBN2)2 dimer in 150 μL of 10% EtOH/saline. Venous blood samples were collected at 5, 15, 30, and 60 min post-injection via the mouse tail vein and further processed. Blood cells were separated by centrifugation (13,000 rpm × 5 min). The supernatant was removed, and the contained proteins were precipitated by the addition of 2 volume parts of methanol (2 vol of MeOH/1 vol of the sample). Another centrifugation step (13,000 rpm × 5 min) was performed to obtain plasma. The clear plasma supernatant was injected into a Shimadzu HPLC system. The samples were analyzed using a Phenomenex Luna 10u C18(2) 100A, 250 × 4.6 mm column, at a constant flow rate of 1 mL/min, and the following gradient with water/0.2% TFA as solvent A and acetonitrile as solvent B: 0−3 min 10% B, 10 min 30% B, 17 min 50% B, 23 min 70% B, and 27−30 min 90% B. For each radiotracer (monomers and dimers with and without E5B9) blood samples from n = 3 mice were analyzed. […]

[3] = Dynamic PET imaging, tumor uptake in LNCaP xenografts; format: in vivo, mouse; conditions: male, BALB/c Nude, mouse, LNCaP xenograft tumor, iv, total radioactivity; LNCaP tumor-bearing mice, PET, 60 min p.i., i.v., mean ± SEM, n = 3-4; read-out: SUVmean,60min tumor uptake
Protocol: as §1

LNCaP tumors = test: as above; format: in vivo, mouse; conditions: LNCaP tumors, pre-dosing i.v. with 300 µg Ava-BBN2 15 min before radiotracer, n = 3, p < 0.01
Protocol: as §1

## CC[C@H](C)[C@@H](CCC(=O)N[C@H](C(N)=O)C(C)(C)C)NC(=O)[C@H](Cc1c[nH]cn1)NC(=O)CN(C)C(=O)[C@@H](NC(=O)[C@H](C)NC(=O)[C@H](Cc1c[nH]c2ccccc12)NC(=O)[C@H](CCC(N)=O)NC(=O)CCCCNC(=O)CC[C@H](NC(=O)[C@H](CCCCn1nnc2c1-c1ccccc1CN(C(=O)CCNC(=O)CCOCCOCCOCCOCCNC(=O)CCN1C(=O)CC(SC[C@H](NC(=O)[C@H](Cc3ccc(O)cc3)NC(=O)[C@H](CCC(=O)O)NC(=O)[C@H](CC(=O)O)NC(=O)[C@@H](NC(=O)[C@@H](NC(=O)[C@H](CCC(=O)O)NC(=O)[C@@H]3CCCN3C(=O)[C@H](CC(C)C)NC(=O)[C@@H]3CCCN3C(=O)[C@H](CCCCN)NC(=O)[C@@H](N)CO)C(C)C)[C@@H](C)O)C(=O)O)C1=O)c1ccccc1-2)NC(=O)CCCCNC(=S)Nc1ccc(C[C@H]2CN(CC(=O)O)CCN(CC(=O)O)CCN2CC(=O)O)cc1)C(=O)NCCCCC(=O)N[C@@H](CCC(N)=O)C(=O)N[C@@H](Cc1c[nH]c2ccccc12)C(=O)N[C@@H](C)C(=O)N[C@H](C(=O)N(C)CC(=O)N[C@@H](Cc1c[nH]cn1)C(=O)N[C@H](CCC(=O)N[C@H](C(N)=O)C(C)(C)C)[C@@H](C)CC)C(C)C)C(C)C (stereo partly shown) [dimeric ^68Ga-(BBN2)2 TM, metal not drawn]
[1]
  SUV at 1 h: 0.51 ± 0.1 SUV
[2]
  intact 68Ga-peptide remaining: 93 ± 1%
[3]
  SUV at 1 h: 0.38 ± 0.03 SUV
LNCaP tumors
  in vivo blocking of tumor uptake: 43 ± 3%
